Tested on: HupA (HU homologue) (Streptomyces coelicolor)
Experiment: EMSA (agarose)
Details: Buffer B: 50 mM NaH2PO4 pH 8.1, 300 mM NaCl, 10% glycerol, 0-40 uM HupA, 120 ng (3.6 nM) pUC19, 3 min room temperature then 15 min 37 C, 1% agarose in TAE …

Substance | binding (bound at 15 uM HupA, 3.6 nM plasmid, 300 mM NaCl) | binding (relaxed by E. coli topoisomerase I (NEB), enzyme inactivated at 65 C)
pUC19 negatively supercoiled | 15 µM | –
pUC19 relaxed by E. coli topoisomerase I | – | 40 µM
